For 94 variants, protein stability index results are on record in the supplement of paper PMC10567573.

B1: ZNF449 (parent)
chain: FQEYDTDCEVFRQRFRQFQYREAA
B2: RHOBTB3 (parent)
chain: DSCCPAGIFQAMCLLICAEMYQVS
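Also: lentivirally expressed fusions sorted by FACS into six bins by GFP to DsRed ratio, PSI derived from sequencing read proportions per bin multiplied by bin number.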

Variants of B1 are the subject of the first series. As to the kind of experiment: protein stability index of a GFP-peptide fusion (GPS, HEK-293T) (PSI 1-6); higher = more stable. Conditions: c terminus: a fixed tail appended.
With FQEYDTDCEVFRQRFRKFQYREAA [Q17K], the protein stability index was determined as 2.42.
Same read-out and setting: for FQEYDTDCEVFRQRFRDFQYREAA [Q17D] the value was 3.13.
The same measure, in the same setting: next, FQEYDTDCEVFRQRFRPFQYREAA [Q17P]: 1.97; FQEYDTDCEVFRQRFRGFQYREAA [Q17G]: 2.22.
Same read-out and setting: next, FQEYDTDCEVFRQRFRFFQYREAA [Q17F]: 1.71.
For the variant FQEYDTDCEVFRQRFRQFQYREVA [A23V], the protein stability index turned out to be 2.15.
As to FQEYDTDCEVFRQRFRQFQYREQA [A23Q], the protein stability index is 2.89.
Take FQEYDTDCEVFRQRFQQFQYREAA [R16Q]: the protein stability index stood at 2.78.
The same measure, in the same setting: for FQEYDTDCEVFRQRFKQFQYREAA [R16K] the value was 2.98; for FQEYDTDCEVFRQRFCQFQYREAA [R16C], 2.07; for FQEYDTDCEVFRQRFHQFQYREAA [R16H], 1.98.
Take FQEYDTDCEVFRQRFMQFQYREAA [R16M]: the protein stability index is 3.38.
Still for that read-out and setting: next, FQEYDTDCEVFRQRFNQFQYREAA [R16N]: 2.46.
Still for that read-out and setting: for FQEYDTDCEVFRQRFTQFQYREAA [R16T] the value was 2.28; for FQEYDTDCEVFRQRFRQWQYREAA [F18W], 3.11.
On the same count and under the same terms, for FQEYDTDCEVFRQRFRQIQYREAA [F18I] the value was 2.86; for FQEYDTDCEVFRQRFRQNQYREAA [F18N], 2.38; for FQEYDTDCEVFRQRFRQPQYREAA [F18P], 2.43.
With FQEYDTDCEVFRQRFRQKQYREAA [F18K], the protein stability index worked out at 1.76.
The same measure, in the same setting: next, FQEYDTDCEVFRQRFRQHQYREAA [F18H]: 2.4.

The variants in another series derive from B2. The description is as above. The conditions noted are these: c terminus: a fixed tail appended.
Turning to DSCCPAGRFQAMCLLICAEMYQVS [I8R], the protein stability index was 2.55.
The same measure, in the same setting: next, DSCCPAGMFQAMCLLICAEMYQVS [I8M]: 1.95.
The same measure, in the same setting: for DSCCPAGIFQAMCLLECAEMYQVS [I16E] the value was 1.7; for DSCCPAGIFQAMCLLLCAEMYQVS [I16L], 2.92.
The same measure, in the same setting: for DSCCPAGIFQAMCLLHCAEMYQVS [I16H] the value was 2.82; for DSCCPAGIFQAMCLLICAEMYAVS [Q22A], 3.15; for DSCCPAGIFQAMCLLICAEMYPVS [Q22P], 2.12.
Consider DSCCPAGIFQAMCLLICAEMYTVS [Q22T], for which the protein stability index stood at 3.27.
The same measure, in the same setting: for DSCCPAGIFQAMCLLICAEMYWVS [Q22W] the value was 2.54.
The same measure, in the same setting: for DSCCPAGIFQAMCLLICAEMYRVS [Q22R] the value was 3.1; for DSCCPAGIFQAMCLLICAEMYYVS [Q22Y], 2.33.
Still for that read-out and setting: next, DSCCPAIIFQAMCLLICAEMYQVS [G7I]: 3.28.
Regarding DSCCPAHIFQAMCLLICAEMYQVS [G7H], the protein stability index came to 2.75.
The same measure, in the same setting: next, DSCCPAYIFQAMCLLICAEMYQVS [G7Y]: 2.8; DSCCPAGIFQAMCLLICAEMYQCS [V23C]: 3.74; DSCCPAGIFQAMCLLICAEMYQWS [V23W]: 3.16.
Take DSCCPAGIFQAMCLLICAEMYQIS [V23I]: the protein stability index was 4.12.
On the same count and under the same terms, next, DSCCPAGIFQAMCLLICAEMYQPS [V23P]: 2.88.
On the same count and under the same terms, for DSCCPAGIFQAMCLLICAEMYQVM [S24M] the value was 1.94; for DSCCPAGIFQAMCLLICAEMYQVC [S24C], 2.39; for DSCCPAGIFQAMCLLICAEMYQVF [S24F], 2.53.
On the same count and under the same terms, for DSCCPAGIFQAMCLLICAEMYQVN [S24N] the value was 3.14; for DSCCPAGIFQAMCLLICAEMKQVS [Y21K], 1.9.
Turning to DSCCPAGIFQAMCLLICAEMIQVS [Y21I], the protein stability index turned out to be 4.41.
The same measure, in the same setting: next, DSCCPAGIFQAMCLLICADMYQVS [E19D]: 2.72.
Same read-out and setting: for DSCCPAGIFQAMCLLICAGMYQVS [E19G] the value was 2.99.
Same read-out and setting: for DSCCPAGIFQAMCLLICASMYQVS [E19S] the value was 2.06.
As to DSCCPAGIFQAMCLMICAEMYQVS [L15M], the protein stability index was 2.19.
The same measure, in the same setting: for DSCCPAGIFQAMCLIICAEMYQVS [L15I] the value was 3.1; for DSCCPAGIFQAMCLWICAEMYQVS [L15W], 1.09.
Still for that read-out and setting: for DSCCPAGIFQAMCLNICAEMYQVS [L15N] the value was 1.98; for DSCCPAGIFQAMCLFICAEMYQVS [L15F], 2.97.
On the same count and under the same terms, next, DSCCPAGIFQAMCLSICAEMYQVS [L15S]: 3.51.
Take DSCCPAGIFQAMCLLICCEMYQVS [A18C]: the protein stability index was 2.87.
For DSCCPAGIFQAQCLLICAEMYQVS [M12Q], the protein stability index was determined as 2.04.
On the same count and under the same terms, next, DKCCPAGIFQAMCLLICAEMYQVS [S2K]: 4.66.
On the same count and under the same terms, for DTCCPAGIFQAMCLLICAEMYQVS [S2T] the value was 3.94; for DPCCPAGIFQAMCLLICAEMYQVS [S2P], 2.93.
The same measure, in the same setting: next, DICCPAGIFQAMCLLICAEMYQVS [S2I]: 3.54; DSCCPTGIFQAMCLLICAEMYQVS [A6T]: 2.9; DSCCPIGIFQAMCLLICAEMYQVS [A6I]: 2.76.
Turning to DSCCPVGIFQAMCLLICAEMYQVS [A6V], the protein stability index worked out at 3.18.
The same measure, in the same setting: next, ISCCPAGIFQAMCLLICAEMYQVS [D1I]: 2.69; PSCCPAGIFQAMCLLICAEMYQVS [D1P]: 1.89.
Same read-out and setting: next, NSCCPAGIFQAMCLLICAEMYQVS [D1N]: 3.73; RSCCPAGIFQAMCLLICAEMYQVS [D1R]: 2.64; TSCCPAGIFQAMCLLICAEMYQVS [D1T]: 3.52.
Turning to DSCPPAGIFQAMCLLICAEMYQVS [C4P], the protein stability index amounted to 2.84.
The same measure, in the same setting: for DSCMPAGIFQAMCLLICAEMYQVS [C4M] the value was 4.
Same read-out and setting: for DSCFPAGIFQAMCLLICAEMYQVS [C4F] the value was 2.94; for DSRCPAGIFQAMCLLICAEMYQVS [C3R], 2.33; for DSHCPAGIFQAMCLLICAEMYQVS [C3H], 1.02.
Still for that read-out and setting: for DSCCPAGIFQAMPLLICAEMYQVS [C13P] the value was 2.42; for DSCCPAGIFQAMNLLICAEMYQVS [C13N], 3.63; for DSCCPAGIFQAMHLLICAEMYQVS [C13H], 2.4.
As to DSCCPAGIFQAMYLLICAEMYQVS [C13Y], the protein stability index is 2.77.
For the variant DSCCPAGIFQAMCLLITAEMYQVS [C17T], the protein stability index is 2.97.
Still for that read-out and setting: for DSCCPAGIFQAMCLLIHAEMYQVS [C17H] the value was 4.02; for DSCCPAGIFQAMCLLIRAEMYQVS [C17R], 4.51.
Same read-out and setting: for DSCCPAGIFQAMCLLIDAEMYQVS [C17D] the value was 1.91; for DSCCPAGIFQAMCTLICAEMYQVS [L14T], 2.78; for DSCCPAGIFQAMCILICAEMYQVS [L14I], 2.24.
The same measure, in the same setting: next, DSCCPAGIFQAMCELICAEMYQVS [L14E]: 3.59.
Take DSCCNAGIFQAMCLLICAEMYQVS [P5N]: the protein stability index amounted to 3.01.
Consider DSCCHAGIFQAMCLLICAEMYQVS [P5H], for which the protein stability index came out at 3.17.
Same read-out and setting: for DSCCIAGIFQAMCLLICAEMYQVS [P5I] the value was 2.61.
For DSCCPAGIFQAMCLLICAEVYQVS [M20V], the protein stability index stood at 2.24.
Same read-out and setting: for DSCCPAGIFQKMCLLICAEMYQVS [A11K] the value was 1.32.
On the same count and under the same terms, for DSCCPAGIFQCMCLLICAEMYQVS [A11C] the value was 2.69; for DSCCPAGIFNAMCLLICAEMYQVS [Q10N], 2.37; for DSCCPAGIFDAMCLLICAEMYQVS [Q10D], 2.75.
As for DSCCPAGIFPAMCLLICAEMYQVS [Q10P], the protein stability index is 2.72.
On the same count and under the same terms, for DSCCPAGIEQAMCLLICAEMYQVS [F9E] the value was 4.01; for DSCCPAGIDQAMCLLICAEMYQVS [F9D], 1.51.
